Key:
[1] = tested on: EGFR; experiment: EGFR dimerization assay under PINK1-CTD overexpression; assay type: cell-based; conditions: CL1-5, PC9, H1975 and H3255 cells (FIG. 9A)
[2] = tested on: CL1-5, PC9, H1975 and H3255 cells; experiment: Tumor xenografts of PINK1-CTD stably expressing lung cancer cells; assay type: in vivo; conditions: CL1-5, PC9, H1975 and H3255 xenografts (FIGS. 6B, 6E, 6H, 6K)
From the text: FIGS. 6A-6L show tumor xenografts of shPINK1, PINK1 and PINK1-CTD stably expressing lung cancer cells. FIGs. A, D, G and J: PINK1 overexpression aggravated tumor growth in CL1-5 cells but suppressed tumor growth in PC9, H1975 and H3255 cells; FIGs. B, E, H and K: PINK1-CTD overexpression inhibited tumor growth in all cells tested; FIGs. C, F, I and L: PINK1 knockdown inhibited tumor growth in CL1-5 cells but promoted tumor growth in PC9, H1975 and H3255 cells. N=7 in each group.
(§1) It was next investigated the in vivo tumor growth of PINK1-CTD stably expressing CL1-5, PC9, H1975 and H3255 cells. It has been shown that PINK1-CTD inhibits EGFR activation. It not only downregulates EGFR downstream signaling in EGFR-addicted PC9, H1975 and H3255 cells but also attenuates STATS-Y705 phosphorylation in EGFR non-addicted CL1-5 cells (FIGS. 9A and 9B). […] In addition, the synthetic polypeptide PINK1-CTD (Genmedkia Biotechnology Corp.) was used in mouse xenograft model. 2 μM of CTD polypeptide or R9 peptide (as control group) was injected into the mouse every day or every two days (as shown by arrow in FIGS. 11A and 11B).

[3] = tested on: EGFR pathway; experiment: Immunoblotting of EGFR pathway under PINK1-CTD overexpression; assay type: cell-based
From the text: FIGS. 9A and 9B show hindrance of PINK1-CTD to EGFR dimerization and activation.
as §1

[4] = tested on: EGFR-TKD (amino acids 645-954); experiment: In vitro GST pull-down assay; assay type: binding; conditions: recombinant GST-fused PINK1-CTD incubated with purified His-tagged EGFR-TKD; anti-His immunoblot (FIG. 3E)
From the text: To dissect the interaction between PINK1 and EGFR, it was next investigated whether these two protein kinases interact directly and through which domains they interplay. It was established a flag-fused full-length EGFR construct, EGFR-flag, (amino acids 1-1210) and 8 serial truncated EGFR-flag constructs based on different EGFR functional domains (amino acids 1-378, 1-621, 1-644, 1-690, 1-954, 645-1210, 645-954, 955-1210) (FIG. 3A). Each of these 9 constructs was co-overexpressed with full-length PINK1 in HEK293 cells. The cell lysates were immunoprecipitated by anti-flag antibody and the immunoprecipitates were immunoblotted by PINK1 antibody. […] It was simultaneously established a myc-fused full-length PINK1 construct and another 7 truncated PINK1-myc constructs containing amino acids 1-509, 1-155, 156-509, 156-309, 310-428, 429-581 and 78-581, respectively (FIG. 3C). Each of these 8 constructs was co-transfected with full-length EGFR-flag in HEK293 cells. The cell lysates were immunoprecipitated by anti-myc antibody and immunoblotted with anti-flag antibody. […] Recombinant GST-fused PINK1-CTD (amino acids 510-581) and negative-control construct GST-fused PINK1310-428 (amino acids 310-428) were individually incubated with purified His-tagged EGFR-TKD (amino acids 645-954) and analyzed by immunoblotting with anti-His antibody (FIG. 3E). […]

[5] = tested on: H1975; experiment: H1975 lung cancer mouse xenograft model, CTD treatment; assay type: in vivo; conditions: 2 μM injected every day or every two days, vs R9 (FIG. 11B)
From the text: (§2) R9: a peptide consisting of 9 arginine residues.
as §1

[6] = tested on: CL1-5; experiment: In vitro MTT assay, CL1-5; assay type: cell-based; conditions: 2 μM (FIG. 11C)
[7] = tested on: CL1-5; experiment: CL1-5 lung cancer mouse xenograft model, CTD treatment; assay type: in vivo; conditions: CL1-5 xenograft; 2 μM injected every day or every two days; vs R9 (FIG. 11A)
From the text: as §2, §1

[8] = tested on: H1975; experiment: In vitro MTT assay, H1975; assay type: cell-based; conditions: 2 μM (FIG. 11C)
[9] = tested on: PC9; experiment: In vitro MTT assay, PC9; assay type: cell-based; conditions: 2 μM (FIG. 11C)
[10] = biological target: T1, HER2 (Homo sapiens, UniProt P04626); experiment: HER2 phosphorylation in CL1-5 cells co-cultured with CTD polypeptide; assay type: cell-based; conditions: CL1-5 cell (FIG. 5B)
T1 construct: endogenous in cells; host or cells: CL1-5 cells
From the text: as §2
(§3) To determine the interaction between PINK1-CTD and HER1 or HER2, PINK1-CTD polypeptide was co-cultured with CL1-5, HOP62, PC9 or H1975 cells. In this example, the used PINK1-CTD was synthesized from Genmedkia Biotechnology Corp., and it was conjugated with 9 arginine residues for membrane attaching and internalization. The group in which the cells were co-cultured with a peptide only having 9 arginine residues (R9) was used as control group.

[11] = tested on: EGFR (HER1); experiment: EGFR (HER1) phosphorylation in lung cancer cells co-cultured with CTD polypeptide; assay type: cell-based; conditions: PC9 cells; 2 μM; vs R9 control (FIG. 5A)
From the text: as §2, §3

[12] = biological target: T2, EGFR (HER1) (Homo sapiens, UniProt P00533, L858R/T790M); experiment: as above; assay type: cell-based; conditions: H1975 cells; 2 μM; vs R9 control (FIG. 5A)
T2 construct: endogenous in cells; host or cells: CL1-5, HOP62, PC9, H1975 lung cancer cells
From the text: as §2, §3

[13] = biological target: T3, EGFR (HER1) (Homo sapiens, UniProt P00533); experiment: as above; assay type: cell-based; conditions: 2 μM, vs R9 control (FIG. 5A)
T3 construct: endogenous in cells; host or cells: CL1-5, HOP62, PC9, H1975 lung cancer cells
From the text: as §2, §3

[14] = tested on: Hop62; experiment: In vitro MTT assay, Hop62; assay type: cell-based; conditions: 2 μM (FIG. 11C)

B1: PINK1-CTD: PINK1 C-terminal domain, amino acids 510 to 581 of PINK1 (SEQ ID NO: 1); overexpressed / stably expressed in cells (protein, listed as Homo sapiens)
chain: SLWGEHILALKNLKLDKMVGWLLQQSAATLLANRLTEKCCVETKMKMLFLANLECETLCQAALLLCSWRAAL
EGFR dimer to monomer ratio [1]: a decrease in EGFR dimer to monomer ratio
in vivo tumor growth of PINK1-CTD stably expressing cells [2]: exerted inhibitory effects in all the cells tested
EGFR downstream signaling ([3]; EGFR-addicted PC9, H1975 and H3255 cells (FIG. 9B)): concurrently downregulated
phosphorylated EGFR-Y1068 to total EGFR ratio ([3]; all cells analyzed (FIG. 9B)): a decrease in phosphorylated EGFR-Y1068 to total EGFR ratio
STAT3-Y705 phosphorylation ([3]; wild-type EGFR CL1-5 cells (FIG. 9B)): only a decrease in STAT3-Y705 phosphorylation

B2: GST-fused PINK1-CTD: Recombinant GST-fused PINK1 C-terminal domain, amino acids 510-581 of PINK1 (protein)
chain: B1 chain
modifications: left off: a dimerising Fc or GST
notes: Recombinant GST-fused PINK1 C-terminal domain, amino acids 510-581 of PINK1
direct binding to EGFR-TKD [4]: directly bound to EGFR-TKD

B3: CTD polypeptide: Synthesized PINK1-CTD (Genmedkia Biotechnology Corp.), conjugated with 9 arginine residues for membrane attaching and internalization (peptide)
peptide: SLWGEHILALKNLKLDKMVGWLLQQSAATLLANRLTEKCCVETKMKMLFLANLECETLCQAALLLCSWRAALRRRRRRRRR
in vivo tumor growth [5]: inhibited in vivo tumor growth
cell viability (MTT) [6]: reduced
in vivo tumor growth [7]: inhibited in vivo tumor growth
cell viability (MTT) [8]: reduced
cell viability (MTT) [9]: reduced
HER2 phosphorylation [10]: inhibited HER2 phosphorylation in CL1-5 cell in a dose-dependent manner
EGFR (HER1) phosphorylation [11]: effectively inhibited
EGFR (HER1) phosphorylation [12]: effectively inhibited
EGFR (HER1) phosphorylation ([13]; CL1-5 cells): effectively inhibited
EGFR (HER1) phosphorylation ([13]; HOP62 cells): effectively inhibited
cell viability (MTT) [14]: reduced
